Results published in patent publication US20050112552A1, “Identification and isolation of novel polypeptides having PDZ domains and methods of using same” (AxCell Biosciences Corporation, priority 2000, published 2005).
Read-outs that look alike come from different tables or passages of the source. Where no end group is shown, it is not given here.

Key:
[1] = molecular target: third PDZ domain of Chapsyn (Homo sapiens, UniProt Q15700); settings: cross-affinity map; in words
Source text: (§1) To determine the ligand preferences of the novel PDZ domain-containing clones described in Section 6.1 the novel PDZ domains derived from PDZP2, PDZP3, KIAA-147, and the three PDZ domains of PSD-95 and Chapsyn were subcloned into glutathione S-transferase (GST) expression vectors and expressed as GST fusion proteins. We examined the peptide ligand binding preferences of all sixteen individual PDZ domains in an enzyme-linked immunosorbent assay-based cross-affinity map experiment. As mentioned above, 45 peptides were chosen from database searches and grouped into seven classes (G-protein coupled receptors, viral proteins, glutamate receptors, ion channels, Frizzled homologs, transporters and various other proteins). We tested the ability of these peptides to bind to the known and novel PDZ domains.
(§2) PCR fragments encoding individual PDZ domains were subcloned into the Sal1 and Notl sites of pGEX-4T-2 (Pharmacia Biotech, Inc.) and fusion proteins were expressed and purified as described by the manufacturer. ELISA based cross-affinity experiments were performed essentially as described by Sparks et al. (1996, Proc. Natl. Acad. Sci. USA 93:1540-1544) with the following modifications. Briefly, microtiter wells were coated with […] of fusion protein in 100 mM NaHCO3, blocked with SuperBlock TBS (Pierce) and washed four times with PBS, 0.05% Tween 20. Specific peptide-streptavidin/alkaline phosphatase complexes were added as above and unbound complexes washed five times with PBS, 0.05% Tween 20. Following addition of PNP substrate (p-nitrophenyl phosphate, Kirkegard & Perry Labs), peptide binding was quantitated after 30 min. at O.D. 405 nm. Relative binding measurements from three independent determinations were assigned to a scale as follows: O.D. units 0−0.5=(−), 0.5−1.0=(+), 1.0−2.0=(++), 2.0−3.0=(+++)>3.0=(++++). Peptide sequences used in cross-affinity experiments correspond to C-terminal segments of the following proteins: protein name (species: H=Human; M=Mouse; R=Rat; B=Bovine; V=Viral Origin, Genbank accession number); β1-adrenoreceptor (H, P18090); Serotonin Receptor (H, P28223); VIP Receptor (H, P32241); CRF Receptor (H, P34998); Orphan Receptor (H, P46089); β-1 Adrenergic Receptor (H, P08588); COM (ADE02, P03267); E6, HPV18 (V, P06463); UL25, HSV11 (V, P10209); GP3, EBV (V, P03200); TAT, HTL1A (V, P03409); UL14, VZVD (V, P09295); NMDA Receptor, NR2B (M, Q01097); NMDA Receptor subunit (H, U08266); mGluR1α (H, U31215); mGluR5a (H, D28538); mGluR (H, L76631); mGluR3 (H, AC002081); AMPA receptor (H, L20814); K^+-Channel, KV 1.4 (H, P22459); K^+-Channel Kir 2.2v (H, U53143); Na^+-Channel (a) (H, P15389); K^+-Channel (Kir) (H, D50582); Transmembrane Receptor (Homolog of frizzled ) (H, U43318); Homolog of frizzled (R, L02529); Homolog of frizzled (M, U43319); Glucose transporter (H, P11166); Excitatory Amino Acid Transporter (H, P43003); FAS Receptor (H, P25445); NGF Receptor (H, P08138); Neuropeptide Y Receptor, type 2 (H, P49146); Somatostatin Receptor, type 2 (H, P30874); CFTR (H, P13569); V-CAM (H, P19320); Ankyrin (H, Q01484); Fanconi anemia group C protein (H , Q00597); Calcium pump (H, P23634); APC protein (H, P25054); BCR, (H, P11274); MPK2 (H, P36507); Colorectal Mutant Cancer Protein (H, P23508); 65 KD Yes-Associated Protein (H, P46937); Neutrophil Cytosol Factor 1 (H, P14598); Neurexin III, (B, L27869); Neurexin II (B, L14855). Protein sequence homology searches were performed using BLAST (Altschul et al., 1990, J. Mol. Biol. 215:403-410).

[2] = molecular target: T1, second PDZ domain of PSD-95 (Homo sapiens, UniProt P78352); settings: cross-affinity map, in words
Source text: as §1, §2

[3] = molecular target: first PDZ domain of Chapsyn (Homo sapiens, UniProt Q15700, V177A); settings: cross-affinity map; in words
Source text: as §1, §2

[4] = molecular target: second PDZ domain of Chapsyn (Homo sapiens, UniProt Q15700); settings: cross-affinity map; in words
Source text: as §1, §2

[5] = molecular target: third PDZ domain of PSD-95 (Homo sapiens, UniProt P78352, D348N); settings: cross-affinity map; in words
Source text: as §1, §2

[6] = molecular target: T1, second PDZ domain of PSD-95; set-up: PCR fragments encoding individual PDZ domains were subcloned; made in house; settings: stated as known; cited from earlier work
PDZP2.4 = PDZP2.4 (Homo sapiens, UniProt Q96QZ7); settings: GST fusion protein
PDZP2.4, sequence (Q96QZ7 with tags, fused parts or gaps isoform Q96QZ7-2 limits assumed): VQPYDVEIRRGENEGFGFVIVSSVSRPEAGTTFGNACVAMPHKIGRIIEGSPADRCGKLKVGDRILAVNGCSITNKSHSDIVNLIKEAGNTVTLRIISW
Protocol: (§3) Assays that generate the data, e.g., that of FIGS. 5A and 5B, are conducted in the presence of various compounds that potentially effect the binding of the domains to respective recognition units.
as §1, §2

PDZP3.1 = PDZP3.1 (Homo sapiens, UniProt Q8NI35); settings: GST fusion protein
PDZP3.1, sequence (Q8NI35 1433-1519 limits assumed): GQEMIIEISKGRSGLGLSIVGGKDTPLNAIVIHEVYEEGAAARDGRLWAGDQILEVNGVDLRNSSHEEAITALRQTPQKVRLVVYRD
Protocol: as §3, §1, §2

PDZP2.1 = PDZP2.1 (Homo sapiens, UniProt Q96QZ7, D549G/L550P); settings: GST fusion protein
PDZP2.1, sequence (Q96QZ7 468-553 D549G/L550P limits assumed): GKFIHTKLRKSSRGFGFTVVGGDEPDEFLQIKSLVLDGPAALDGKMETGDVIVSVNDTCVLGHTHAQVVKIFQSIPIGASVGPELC
Protocol: as §3, §1, §2

PDZP3.2 = PDZP3.2 (Homo sapiens, UniProt Q8NI35); settings: GST fusion protein
PDZP3.2, sequence (Q8NI35 1530-1614 limits assumed): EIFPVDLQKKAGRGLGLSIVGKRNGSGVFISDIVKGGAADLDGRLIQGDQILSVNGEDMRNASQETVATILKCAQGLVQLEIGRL
Protocol: as §3, §1, §2

PDZP2.3 = PDZP2.3 (Homo sapiens, UniProt Q96QZ7); settings: GST fusion protein
PDZP2.3, sequence (Q96QZ7 837-922 limits assumed): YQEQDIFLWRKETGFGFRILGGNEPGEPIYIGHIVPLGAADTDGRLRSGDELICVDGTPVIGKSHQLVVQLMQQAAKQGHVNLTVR
Protocol: as §3, §1, §2

[7] = molecular target: first PDZ domain of PSD-95 (PSD-95-1) (Homo sapiens, UniProt P78352); settings: for binding to the first PDZ domain of PSD-95: cross-affinity map, no test compound, in words; for PDZ domain-recognition unit interaction, PSD-95-1: GST fusion protein
Protocol: as §3, §1, §2

PDZP2.2 = PDZP2.2 (Homo sapiens, UniProt Q96QZ7); settings: GST fusion protein
PDZP2.2, sequence (Q96QZ7 639-720 limits assumed): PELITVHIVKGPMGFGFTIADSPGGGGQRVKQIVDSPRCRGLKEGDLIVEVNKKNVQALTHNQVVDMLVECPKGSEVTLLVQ
Protocol: as §3, §1, §2

[8] = molecular target: T2, interaction between the first PDZ domain in PSD-95 and the carboxy terminal peptide sequence of Na channel protein (Homo sapiens, UniProt P78352); test: Competitive inhibition analysis of PDZ domain-peptide ligand interaction; assay type: binding; settings: GST-PSD-95.1 coated plates, biotinylated Na+ channel peptide (SEQ ID NO:51), various inhibitor concentrations, A405 nm
T2 construct: a GST-PSD-95.1 fusion protein of the first PDZ domain of PSD-95; made in house
Source text: FIG. 19 presents a competitive inhibition analysis of the interaction between the first PDZ domain in PSD-95 and the carboxy terminal peptide sequence of Na channel protein. GST fusion protein containing the first PZD domain of PSD-95 was contacted with a recognition unit-peptide complex corresponding to the 12 carboxyl terminal amino acids of Na^+ channel protein (FIG. 5A, SEQ ID NO:51) and various concentrations of 1 of 3 different inhibitor peptide complexes. Binding of the dimer inhibitor peptide in the presence of streptavidin alkaline phosphatase/Biotin-Ser-Gly-Ser-Gly-Pro-Pro-Ser-Pro-Asp-Arg-Asp-Arg-Glu-Ser-Ile-Val-COOH (SEQ ID NO:157) is presented as a solid box. Binding of the recognition unit in the presence of a peptide corresponding to the 5 carboxy terminal residues of the Na^+ channel protein (SEQ ID NO:105) (hatched box), and in the presence of a scrambled version of this 5mer (SEQ ID NO:158) (open box), are also presented. Binding of the biotinylated peptide was quantitated at A405 nm. […]
An inhibition assay essentially as described in Section 5.4 was performed to assess the ability of PDZ ligands to uncouple NOS from the NMDA receptor. […] Particularly, biotinylated peptide and various concentrations of an inhibitor were added to microtiter plates coated with the GST-PSD-95.1 fusion protein and the binding interactions were quantified as described above. […]

[9] = listed as NMDA receptor NR2 subunit

SEQ ID NO. 42: biotinylated peptide, 12 carboxy terminal amino acids of NMDA (NR2B), mouse (VYEKLSSIESDV; not fully specified; also: biotinylated, position not given here)
binding to the third PDZ domain of Chapsyn [1]: same binding specificities
binding to the second PDZ domain of PSD-95 [2]: positive interaction
binding to the second PDZ domain of PSD-95 [2, 9]: bind to the first and second PDZ domain
binding to the first PDZ domain of Chapsyn [3]: same binding specificities
binding to the second PDZ domain of Chapsyn [4]: same binding specificities
binding to the third PDZ domain of PSD-95 [5]: not the third PDZ domain
binding to the second PDZ domain of PSD-95 [6]: binds
PDZ domain-recognition unit interaction, PDZ2.4 (PDZP2.4; in the presence of Compound A): + (0.5−1.0=(+))
PDZ domain-recognition unit interaction, PDZ2.4 (PDZP2.4; in the presence of Compound B): ++++ (>3.0=(++++))
PDZ domain-recognition unit interaction, PDZ2.4 (PDZP2.4; in the presence of Compound C): + (0.5−1.0=(+))
PDZ domain-recognition unit interaction, PDZ3.1 (PDZP3.1; in the presence of Compound A): + (0.5−1.0=(+))
PDZ domain-recognition unit interaction, PDZ3.1 (PDZP3.1; in the presence of Compound B): ++++ (>3.0=(++++))
PDZ domain-recognition unit interaction, PDZ3.1 (PDZP3.1; in the presence of Compound C): ++++ (>3.0=(++++))
PDZ domain-recognition unit interaction, PDZP2.1 (PDZP2.1; in the presence of Compound A): + (0.5−1.0=(+))
PDZ domain-recognition unit interaction, PDZP2.1 (PDZP2.1; in the presence of Compound B): ++++ (>3.0=(++++))
PDZ domain-recognition unit interaction, PDZP2.1 (PDZP2.1; in the presence of Compound C): + (0.5−1.0=(+))
PDZ domain-recognition unit interaction, PDZ3.2 (PDZP3.2; in the presence of Compound A): − (O.D. units 0−0.5=(−))
PDZ domain-recognition unit interaction, PDZ3.2 (PDZP3.2; in the presence of Compound B): − (O.D. units 0−0.5=(−))
PDZ domain-recognition unit interaction, PDZ3.2 (PDZP3.2; in the presence of Compound C): − (O.D. units 0−0.5=(−))
PDZ domain-recognition unit interaction, PDZ2.3 (PDZP2.3; in the presence of Compound A): + (0.5−1.0=(+))
PDZ domain-recognition unit interaction, PDZ2.3 (PDZP2.3; in the presence of Compound B): ++++ (>3.0=(++++))
PDZ domain-recognition unit interaction, PDZ2.3 (PDZP2.3; in the presence of Compound C): + (0.5−1.0=(+))
binding to the first PDZ domain of PSD-95 [7]: positive interaction
binding to the first PDZ domain of PSD-95 [7, 9]: bind to the first and second PDZ domain
PDZ domain-recognition unit interaction, PSD-95-1 ([7]; in the presence of Compound A): − (O.D. units 0−0.5=(−))
PDZ domain-recognition unit interaction, PSD-95-1 ([7]; in the presence of Compound B): +++ (2.0−3.0=(+++))
PDZ domain-recognition unit interaction, PSD-95-1 ([7]; in the presence of Compound C): +++ (2.0−3.0=(+++))
PDZ domain-recognition unit interaction, PDZ2.2 (PDZP2.2; in the presence of Compound A): + (0.5−1.0=(+))
PDZ domain-recognition unit interaction, PDZ2.2 (PDZP2.2; in the presence of Compound B): +++ (2.0−3.0=(+++))
PDZ domain-recognition unit interaction, PDZ2.2 (PDZP2.2; in the presence of Compound C): + (0.5−1.0=(+))

AC-Cys-Pro-Pro-Ser-Pro-Asp-Arg-Asp-Arg-Glu-Ser-Ile-Val-COOH (Ac-CPPSPDRDRESIV-OH) [dimer inhibitor]
inhibition of the interaction of the PDZ domain and ligand [8]: able to inhibit

Arg-Glu-Ser-Ile-Val-COOH (RESIV-OH) [5mer containing the carboxy terminal 5 residues of the Na+ channel peptide]
inhibition of the interaction of the PDZ domain and ligand [8]: to a lesser extent
